Here are results for 13 molecules from patent EP3443010B1.

Where a chain is given by its changes, count along the chain named.

The target in assay [1] is recombinant hSIRPa (Sino Biologicals, reference 11612-H08H) (human) (UniProt P78324). Nature of the assay: ELISA, hSIRPa (Sino 11612-H08H) coated at 0.5 ug/ml, anti-human IgG detection; second experiment.
The target is the same in assay [2]. Nature of the assay: ELISA, hSIRPa (Sino 11612-H08H) coated at 0.5 ug/ml, anti-human IgG detection; third experiment.
For assay [3] the target is unchanged. Nature of the assay: ELISA, hSIRPa (Sino 11612-H08H) coated at 0.5 ug/ml, anti-human IgG detection; first experiment.
The target is the same in assay [4]. Nature of the assay: ELISA, hSIRPa (Sino 11612-H08H) coated at 0.5 ug/ml, anti-human IgG detection.

recombinant hSIRPa (Sino Biologicals, reference 11612-H08H) (human), sequence (P78324 31-370): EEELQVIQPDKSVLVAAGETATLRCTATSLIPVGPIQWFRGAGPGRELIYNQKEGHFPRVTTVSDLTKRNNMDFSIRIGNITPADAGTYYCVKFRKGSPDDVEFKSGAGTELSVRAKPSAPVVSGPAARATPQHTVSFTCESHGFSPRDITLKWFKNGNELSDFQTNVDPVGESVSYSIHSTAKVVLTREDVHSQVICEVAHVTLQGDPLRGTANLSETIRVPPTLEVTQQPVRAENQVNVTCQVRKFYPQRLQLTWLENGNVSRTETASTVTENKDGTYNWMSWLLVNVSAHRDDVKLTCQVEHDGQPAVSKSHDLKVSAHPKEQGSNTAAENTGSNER

B1: HELA (antibody, human IgG4 S228P, kappa, V domains shown)
VH: EVQLVQSGAEVKKPGESLRISCKASGYSFTSYWVHWVRQMPGKGLEWMGNIDPSDSDTHYSPSFQGHVTLSVDKSISTAYLQLSSLKASDTAMYYCVRGGTGTLAWFAYWGQGTLVTVSS
VL: DVVMTQSPLSLPVTLGQPASISCRSSQSLVHSYGNTYLYWYQQRPGQSPRLLIYRVSNRFSGVPDRFSGSGSGTDFTLKISRVEAEDVGVYFCFQGTHVPYTFGGGTKVEIKR
As for B1, in assay [1], the EC50 worked out at 4.61 ng/mL.

B2: HCLA (antibody, human IgG4 S228P, kappa, V domains shown)
VH: B1 VH with L104M
VL: B1 VL
As to B2, the EC50 in assay [1] was found to be 5.6 ng/mL.

B3: HBLA (antibody, human IgG4 S228P, kappa, V domains shown)
VH: B1 VH with S61N, P62Q, S63K, Q65K, G66D, L104M
VL: B1 VL
With B3, in assay [2], the EC50 was determined as 2.68 ng/mL.

B4: HBLB (antibody, human IgG4 S228P, kappa, V domains shown)
VH: B1 VH with S61N, P62Q, S63K, Q65K, G66D, L104M
VL: B1 VL with Y41F, F92Y
In the case of B4, in assay [2], the EC50 came to 2.95 ng/mL.

B5: HELB (antibody, human IgG4 S228P, kappa, V domains shown)
VH: B1 VH
VL: B1 VL with Y41F, F92Y
As to B5, the EC50 in assay [1] came out at 4.13 ng/mL.

B6: HALB (antibody, human IgG4 S228P, kappa, V domains shown)
VH: B1 VH with S28T, M48I, S61N, P62Q, S63K, Q65K, G66D, L104M
VL: B1 VL with Y41F, F92Y
Turning to B6, the EC50 in assay [2] was determined as 2.53 ng/mL.

B7: HFLB (antibody, human IgG4 S228P, kappa, V domains shown)
VH: B1 VH with L104M, W106Y
VL: B1 VL with Y41F, F92Y
For the molecule B7, the EC50 in assay [3] was found to be 4 ng/mL.

B8: HCLB (antibody, human IgG4 S228P, kappa, V domains shown)
VH: B1 VH with L104M
VL: B1 VL with Y41F, F92Y
B8: the EC50 in assay [1] is 5.59 ng/mL.

B9: HEFLB (antibody, human IgG4 S228P, kappa, V domains shown)
VH: B1 VH with W106Y
VL: B1 VL with Y41F, F92Y
In the case of B9, in assay [3], the EC50 stood at 4.4 ng/mL.

B10: HEFLA (antibody, human IgG4 S228P, kappa, V domains shown)
VH: B1 VH with W106Y
VL: B1 VL
As to B10, the EC50 in assay [3] was 7.1 ng/mL.

B11: HFLA (antibody, human IgG4 S228P, kappa, V domains shown)
VH: B1 VH with L104M, W106Y
VL: B1 VL
On to B11, for which the EC50 in assay [3] was found to be 5.1 ng/mL.

B12: HALA (antibody, human IgG4 S228P, kappa, V domains shown)
VH: B1 VH with S28T, M48I, S61N, P62Q, S63K, Q65K, G66D, L104M
VL: B1 VL
As to B12, the EC50 in assay [3] amounted to 3.9 ng/mL.

B13: Kwar23 (antibody, from another filing, V domains shown)
VH: EVQLQQSGAELVKPGASVKLSCTASGFNIKDYYIHWVQQRTEQGLEWIGRIDPEDGETKYAPKFQDKATITADTSSNTAYLHLSSLTSEDTAVYYCARWGAYWGQGTLVTVSS
VL: QIVLTQSPAIMSASPGEKVTLTCSASSSVSSSYLYWYQQKPGSSPKLWIYSTSNLASGVPARFSGSGSGTSYSLTISSMEAEDAASYFCHQWSSYPRTFGAGTKLELK
For the molecule B13, in assay [4], the EC50 was 3.3 ng/mL.
